Laboratory results reported in paper PMC11378909, “Thr^4 phosphorylation on RNA Pol II occurs at early transcription regulating 3′-end processing” (Science Advances, 2024).
Where two headings read alike, the source gives them in different places. Where no end group is shown, it is not given here.

Key:
[1] = target: FITC-labeled pSer2 CTD peptide (16-mer, single phosphorylation at Ser2); assay: fluorescence anisotropy (FA); details: read at the highest protein concentration, 100 µM, read off a plot
[2] = target: FITC-labeled pThr4 CTD peptide (16-mer, single phosphorylation at Thr4); assay: fluorescence anisotropy (FA); details: read at the highest protein concentration, 100 µM, read off a plot
pThr^4 (6D7) antibody = assay: Dot blot of pThr^4 CTD peptide after kinase treatment; assay type: biochemical; details: pThr^4 CTD peptide (18-mer), 10 μg or 5 μg, kinase-treated vs no-kinase control (fig. S1C)
From the text: Another reported Thr^4 antibody masking effect in vitro is observed when Ser^2, two residues upstream of pThr^4, is phosphorylated (pSer^2Pro^3pThr^4Ser^5). Despite the in vitro blocking effect, this potential impediment posed to pThr^4 identification is less concerning under physiological conditions as pSer^2/pThr^4 double phosphorylation is rather rare in cells ([19]). Subsequent biochemical and cellular experiments have shown that, although Ser^2 and Thr^4 phosphorylations occur around the same time during transcription cycle, they tend to occur on different heptads because kinases avoid placing a phosphate on the neighboring Ser^2 when Thr^4 is phosphorylated and vice versa ([19]). […]
Another phosphorylation mark co-occurring with Thr^4 on the same heptad is Tyr1 (accounts for ~5% of doubly phosphorylated heptads) ([19]). […] To corroborate this, we evaluated the possibility that Tyr1 phosphorylation affects pThr^4 detection by treating pThr^4-containing CTD peptide with the Tyr1 kinase, c-Abl (fig. S1B). […]
Serial dilutions of pThr^4 CTD peptide or Dyrk1a/Abl1 kinase-treated pThr^4 CTD peptide were spotted on an activated nitrocellulose membrane. […] The membrane was washed three times and visualized on a LI-COR Odyssey CLx image reader. […]

[3] = target: FITC-labeled pSer2 CTD peptide (16-mer, single phosphorylation at Ser2); assay: fluorescence polarisation; CID protein titrated into 10 nM FITC-peptide; 50 mM Tris (pH 8.0), 300 mM NaCl, 10 mM BME; room temperature; triplicate; total binding model
[4] = target: FITC-labeled pThr4 CTD peptide (16-mer, single phosphorylation at Thr4); assay: as above
[5] = target: FITC-labeled pSer2 CTD peptide (16-mer, single phosphorylation at Ser2); assay: as above; remark: listed apart in the source
[6] = target: FITC-labeled pThr4 CTD peptide (16-mer, single phosphorylation at Thr4); assay: as above; remark: listed apart in the source
[7] = target: T1, RNA Pol II CTD peptide CTD peptide (Homo sapiens, UniProt P24928, not fully specified (residue 2); also: pSer2 (heptad position 2, which repeat(s) not given here)); assay: fluorescence anisotropy
T1 chain: YSPTSPSYSPTSPS

[8] = target: T2, RNA Pol II CTD peptide CTD peptide (Homo sapiens, UniProt P24928, not fully specified (residue 4); also: pThr4 (heptad position 4, which repeat(s) not given here)); assay: fluorescence anisotropy
T2 chain: YSPTSPSYSPTSPS

[9] = system: pSer^2 Pol II in HEK293 nuclear extract; assay: Western blot, pSer^2 recognition in HEK293 nuclear extract treated with phosphatase; assay type: biochemical, human; details: HEK293 nuclear extract treated with Ssu72, antibody 3E10; vs untreated and inactive Ssu72 mutant
RNA Pol II CTD = details: cited from earlier work
From the text: The reported enrichment of pThr^4pSer^5 double phosphorylation in cells raised concerns for Thr^4 phosphorylation detection as the masking effect by adjacent phosphorylation may block pThr^4 recognition leading to false-negative results ([19]). To address this issue, we explored the possibility of eliminating the masking effect on pThr^4 antibody recognition by selectively removing the interfering phosphate groups on Ser^5 of the CTD. Our prior biochemical and structural analyses have established phosphatase Ssu72 as a highly specific phosphatase for Ser^5 of the CTD, distinguishing Ser^5 from ...

## RPRD1A-CID (residues 2 to 133) (from UniProt Q96P16) R106A
[1]; pSer2 CTD peptide, parent: est. 110
  response: 17 mP
[2]; pThr4 CTD peptide, parent: est. 87
  response: 25 mP

## RPRD1B-CID (residues 2 to 133) (from UniProt Q9NQG5) R106A
[1]; FITC-labeled pSer2 CTD peptide, parent: est. 170
  response: 8 mP
[2]; FITC-labeled pThr4 CTD peptide, parent: est. 150
  response: 8 mP

## c-Abl: Tyr1 kinase
pThr^4 (6D7) antibody
  effect of kinase treatment on pThr^4 antibody detection: does not affect pThr^4 antibody recognition

## RPRD2-CID (residues 19 to 149) (from UniProt Q5VT52 19-149) (domain or fragment)
[3]
  Kd: 8.7 µM
[4]
  Kd: 6.6 µM

## RPRD2-CID (residues 19 to 149) (from UniProt Q5VT52) R122A
[1]; pSer2 CTD peptide, parent: est. 180
  response: 16 mP
[2]; pThr4 CTD peptide, parent: est. 120
  response: 16 mP

## SCAF4-CID (residues 1 to 139) (from UniProt O95104) R112A
[1]; pSer2 CTD peptide, parent: est. 170
  response: 17 mP
[2]; pThr4 CTD peptide, parent: est. 77
  response: 15 mP

B1: RPRD1B-CID (residues 2 to 133) (domain or fragment)
chain: SSFSESALEKKLSELSNSQQSVQTLSLWLIHHRKHAGPIVSVWHRELRKAKSNRKLTFLYLANDVIQNSKRKGPEFTREFESVLVDAFSHVAREADEGCKKPLERLLNIWQERSVYGGEFIQQLKLSMEDSK
[5]
  Kd: 22.8 µM
[6]
  Kd: 5.3 µM

B2: CHERP CID (protein)
chain: LLEETQLDMNEFDNLLQPIIDTCTKDAISAGKNWMFSNAKSPPHCELMAGHLRNRITADGAHFELRLHLIYLINDVLHHCQRKQARELLAALQKVVVPIYCTSFLAVEEDKQQKIARLLQLWEKNGYFDDSIIQQLQSPALGLGQYQ
[7]
  Kd: 10.7 µM
[8]
  Kd: 3.9 µM

B3: SCAF4-CID (residues 1 to 139) (domain or fragment)
chain: MDAVNAFNQELFSLMDMKPPISRAKMILITKAAIKAIKLYKHVVQIVEKFIKKCKPEYKVPGLYVIDSIVRQSRHQFGTDKDVFGPRFSKNITATFQYLYLCPSEDKSKIVRVLNLWQKNGVFKIEIIQPLLDMAAGTS
[5]
  Kd: 6.7 µM
[6]
  Kd: 8.1 µM

B4: Ssu72: phosphatase highly specific for Ser^5 of the CTD (protein)
chain: MTDPSKLAVAVVCSSNMNRSMEAHNFLAKKGFNVRSYGTGERVKLPGMAFDKPNVYEFGTKYEDIYRDLESKDKEFYTQNGLLHMLDRNRRIKKCPERFQDTKEQFDIIVTVEERVYDLVVMHMESMESVDNRPVHVLNVDVVDNAEDALMGAFVITDMINMMAKSTDLDNDIDELIQEFEERRKRVILHSVLFY
modifications: left off: 6xHis, end not stated, state not stated | SUMO, end not stated, state not stated
[9]
  pSer^2 signal recognition: no significant difference
RNA Pol II CTD; MS and biochemical assays
  effect on Ser^5 phosphorylation on the CTD: effectively eradicating Ser^5 phosphorylation
  effect on levels of pSer^2 or pThr^4: no effect
RNA Pol II CTD
  activity against pSer^7 relative to pSer^5: about three magnitudes lower

B5: RPRD1A-CID (residues 2 to 133) (domain or fragment)
chain: SAFSEAALEKKLSELSNSQQSVQTLSLWLIHHRKHSRPIVTVWERELRKAKPNRKLTFLYLANDVIQNSKRKGPEFTKDFAPVIVEAFKHVSSETDESCKKHLGRVLSIWEERSVYENDVLEQLKQALYGDK
[5]
  Kd: 13.8 µM
[6]
  Kd: 12.3 µM
